Source: article PMC10041117

B1: mTFP-C0C2 (C0C2 of cMyBP-C conjugated to mTFP at its N terminus) (domain or fragment)
chain: MPEPGKRPVSAFTKKPRSVEVTAGSAAVFEAETERSGLKVQWQRDGSDIAANDKYGLAAEGKRHTLTVRDVGPDDQGSYAVIAGSSKVKFDLKVTEPAPPEKAESAVAPTSMEAPETPKEVPALATQLEGNVSSPEGSVSVTQDGSVAGSQGAPDDPIGLFLMRPQDGEVTVGGSIVFSARVAGASLLKPPVVKWFKGKWVDLSSKVGQHLQLHDSYDRASKVYLFELHITDAQATSAGGYRCEVSTKDKFDSCNFNLTVHEAIGSGDLDLRSAFRRTSLAGTGRRTSDSHEDAGTLDFSSLLKKSSFRRDSKLEAPAEEDVWEILRQAPPSEYERIAFQHGVTDLRGMLKRLKGMKHDEKKSTAFQKKLEPAYQVNKGHKIRLTVELADPDAEVKWLKNGQEIQMSGRYIFESIGAKRTLTISQCSLADDAAYQCVVGGEKCSTELFVKEP
modifications: not checked
B2: N-terminal fragment of cMyBP-C containing domains C0 through C2 (C0C2), wild type (domain or fragment)
chain: B1 chain
modifications: not checked

Key:
[1] = molecular target: myosin S2Δ (fragment of the S2 region of myosin consisting of its first 128 residues); test: MST; C0C2 constructs binding to myosin S2Δ; as in refs 15 and 25
[2] = molecular target: isolated bovine native thin filaments (NTFs) (bovine), Q3ZC07; test: co-sedimentation; C0C2 constructs cosedimented with isolated bovine native thin filaments (NTFs); as in ref. 15

myosin S2Δ (fragment of the S2 region of myosin consisting of its first 128 residues), sequence (P12883 838-965, stated change not applied): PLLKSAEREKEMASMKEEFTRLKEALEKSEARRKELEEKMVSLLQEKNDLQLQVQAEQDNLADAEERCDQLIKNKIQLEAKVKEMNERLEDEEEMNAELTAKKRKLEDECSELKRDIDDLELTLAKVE

Binder | Kd [1] [µM] | Kd [2] [µM]
B1 | 35 | 18
B2 | 20 | 42
